Measured values from PMC12386978.

Target: K151Q/R mutants
Experiment: split reporter (BiFC, NanoBiT); split-luciferase complementation; HEK293T cells co-transfected with NLuc-mCRY1 (wild-type or mutant) and a CLuc fusion of the partner; bioluminescence read 24 h after transfection in DMEM with 100 uM D-luciferin

Sequence of CLuc-BMAL1 (Q9WTL8 whole entry): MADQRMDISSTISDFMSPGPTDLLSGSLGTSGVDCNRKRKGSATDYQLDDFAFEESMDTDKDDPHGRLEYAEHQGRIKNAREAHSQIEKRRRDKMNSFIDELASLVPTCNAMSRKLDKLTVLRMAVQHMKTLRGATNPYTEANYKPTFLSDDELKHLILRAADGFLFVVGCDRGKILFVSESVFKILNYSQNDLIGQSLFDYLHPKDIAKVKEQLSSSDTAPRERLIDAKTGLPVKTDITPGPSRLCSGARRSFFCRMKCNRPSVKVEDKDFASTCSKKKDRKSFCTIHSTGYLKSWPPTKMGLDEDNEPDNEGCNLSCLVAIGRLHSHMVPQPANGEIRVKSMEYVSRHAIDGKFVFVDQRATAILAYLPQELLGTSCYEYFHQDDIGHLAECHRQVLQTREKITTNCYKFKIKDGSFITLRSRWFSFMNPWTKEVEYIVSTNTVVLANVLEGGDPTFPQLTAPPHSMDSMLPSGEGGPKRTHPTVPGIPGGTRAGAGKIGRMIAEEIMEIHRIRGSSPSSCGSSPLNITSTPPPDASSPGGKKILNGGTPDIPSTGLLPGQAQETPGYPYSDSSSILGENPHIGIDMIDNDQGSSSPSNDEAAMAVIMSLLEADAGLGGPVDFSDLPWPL

binding rate, percent of the wild type (% of the wild type): 50 to 60
Substance: CLuc-BMAL1 (from UniProt Q9WTL8 1-632) (natural protein)
